Experimental findings from patent US20210324061A1 (ARGENX BVBA, published 2021) are described below.

Substitutions are numbered along the chain they refer to. Numbers in names are those of the source. Where “and” joins values, the source holds several entries; their conditions need not be identical. Equal entries are not always repeated.

As usually defined, the Kd is the equilibrium constant for the complex coming apart. One may read the koff as the rate constant with which the complex falls apart.

Assay [1] concerns the target T1, human GARP-TGF-β1 complex (recombinant complex of human GARP and latent human TGF-β1) (human, UniProt Q14392 20-627; P01137 30-278; P01137 279-390).
T1 construct: also called huGARP-TGF-β1; hGARP-TGF-β1
The assay is described as follows: SPR Biacore T200, CM5 chip coated with GARP-TGF-β1 complex at 150 RU. As to the method:
(§1) The affinity of all antibodies (including 39B6-A) for GARP-TGF-β1 was tested by BiacoreT200 using a CM5 chip coated with GARP-TGF-β1 complex at 150RU (Table 17) or coated with the antibodies at 200RU (Table 17)

Assay [2] deals with T1, human GARP-TGF-β1 complex (recombinant …). The assay is described as follows: SPR Biacore T200, CM5 chip coated with the antibody at 200 RU, complex in solution. As to the method:
as §1
A general note: SPR reads the build-up and loss of mass on a sensor chip optically.

The target is the same in assay [3]. The assay is described as follows: SPR Biacore 3000, chip ~4000 RU hGARP-TGF-β; slope vs -20°C reference (=100%); sample 0 d, 5°C arm. How it is done:
(§2) From the intermediate concentration of all samples at 1 mg/ml described above, an extra 1/250 dilution was done for SPR analysis to yield a final concentration of 4 μg/ml. This 1/250 dilution took place for all conditions in two steps: a) 5 μl (1 mg/ml)+120 μl HBS-EP (SPR buffer) and b) an extra 10× dilution (15 μl+135 μl HBS-EP). For each antibody and each time point, a separate standard curve was prepared, starting from a −80° C. frozen sample. This was analyzed together with the stability samples to determine the slope of each curve after general fitting of the standards. These slopes were used to calculate the percent activity of the stability samples by setting the reference sample at 100%.
(§3) To determine the target binding activity in Biacore, a CM5 chip was coated with ˜4000 RU human GARP-TGF-β complex. Flow was set to 30 μl/min with a “kinject” injection mode and two regeneration injections (1 mM NaCl, 2.5 mM glycine pH 1.5) with a 5 min interval.
(§4) Open the curves in the BIAEVAL program and select value ‘2-1’ (1: blank, 2 hGARP-TGF-β1) [0263] Select one curve at the time for plot overlay [0264] Delete the regeneration part of the curve [0265] Select the baseline just before the injection and transform the Y-axis for ‘zero at median of selection’ [0266] Select ‘General Fit’, starting from 120 sec after injecting and ending at 155 sec [0267] Plot the standards in Excel and determine the slope of the curve for each antibody [0268] These values are converted to a percent activity by setting the reference (sample stored at −20° C.) at 100%

Assay [4] shares this target. The assay is described as follows: SPR Biacore 3000, chip ~4000 RU hGARP-TGF-β; slope vs -20°C reference (=100%); sample 0 d, 37°C arm. How it is done: as §2, §3, §4
The target is the same in assay [5]. The assay is described as follows: SPR Biacore 3000, chip ~4000 RU hGARP-TGF-β; slope vs -20°C reference (=100%); sample stored 28 d at 5°C. How it is done: as §2, §3, §4
The target is the same in assay [6]. The assay is described as follows: SPR Biacore 3000, chip ~4000 RU hGARP-TGF-β; slope vs -20°C reference (=100%); sample stored 56 d at 37°C. As to the method:
as §2, §3, §4

The target is the same in assay [7]. The assay is described as follows: SPR Biacore 3000, chip ~4000 RU hGARP-TGF-β; slope vs -20°C reference (=100%); sample stored 56 d at 5°C. How it is done: as §2, §3, §4
Assay [8] shares this target. The assay is described as follows: SPR Biacore 3000, chip ~4000 RU hGARP-TGF-β; slope vs -20°C reference (=100%); sample stored 28 d at 37°C. As to the method:
as §2, §3, §4

The target is the same in assay [9]. The assay is described as follows: SPR Biacore T200, CM5 chip coated with the antibody at 1000 RU, complex in solution. As to the method:
(§5) Clone 39B6 was selected as the lead germlined clone based on its binding characteristics. This antibody was produced in two effector function deficient formats, hlgG1^N297Q and hlgG4^S228P, and stability tests were carried out. Prior to the stability testing, the affinity of the effector deficient 39B6 antibodies for GARP-TGF-β1 was tested by BiacoreT200 using a CM5 chip coated with GARP-TGF-β1 complex at 750RU (Table 14) or coated with the antibodies at 1000RU (Table 15).

The target is the same in assay [10]. The assay is described as follows: SPR Biacore T200, CM5 chip coated with GARP-TGF-β1 complex at 750 RU. How it is done:
as §5

Assay [11] shares this target. The assay is described as follows: SPR, Fab off-rate on human GARP-TGF-β1 complex.
Assay [12] shares this target. The assay is described as follows: SPR, mAb on human GARP-TGF-β1 complex. The source says:
The five germlined clones reformatted to human IgG1 were produced by transient transfection in HEK 293E cells.

Assay [13] addresses T2, complex of recombinant GARP and recombinant LAP (human, UniProt Q14392 20-627; P01137 30-278).
T2 construct: Formed on the ELISA plate; It contains no mature TGF-β; also called GARP-LAP complex
The assay is described as follows: ELISA in two orientations: GARP coated and LAP captured; or ARGX-115 coated, GARP then LAP added, detected with anti-LAP-HRP. How it is done:
For ELISA plates coated with GARP, a complex with either full-length latent TGF-β (including both the LAP and mature TGF-β regions) or a complex with recombinant LAP was allowed to form by the addition of the relevant recombinant protein. […] In contrast, an anti-LAP antibody was able to bind to the GARP-LAP complex.
An ELISA plate was coated with recombinant GARP (1 μg/mL O/N 4° C.), blocked with blocking agent (casein-PBS), and LAP (5 μg/mL) was captured on the coated recombinant GARP. LAP binding was detected with anti-LAP-HRP.

T1 sequence (Q14392 20-627 limits assumed, chain 1 of 3): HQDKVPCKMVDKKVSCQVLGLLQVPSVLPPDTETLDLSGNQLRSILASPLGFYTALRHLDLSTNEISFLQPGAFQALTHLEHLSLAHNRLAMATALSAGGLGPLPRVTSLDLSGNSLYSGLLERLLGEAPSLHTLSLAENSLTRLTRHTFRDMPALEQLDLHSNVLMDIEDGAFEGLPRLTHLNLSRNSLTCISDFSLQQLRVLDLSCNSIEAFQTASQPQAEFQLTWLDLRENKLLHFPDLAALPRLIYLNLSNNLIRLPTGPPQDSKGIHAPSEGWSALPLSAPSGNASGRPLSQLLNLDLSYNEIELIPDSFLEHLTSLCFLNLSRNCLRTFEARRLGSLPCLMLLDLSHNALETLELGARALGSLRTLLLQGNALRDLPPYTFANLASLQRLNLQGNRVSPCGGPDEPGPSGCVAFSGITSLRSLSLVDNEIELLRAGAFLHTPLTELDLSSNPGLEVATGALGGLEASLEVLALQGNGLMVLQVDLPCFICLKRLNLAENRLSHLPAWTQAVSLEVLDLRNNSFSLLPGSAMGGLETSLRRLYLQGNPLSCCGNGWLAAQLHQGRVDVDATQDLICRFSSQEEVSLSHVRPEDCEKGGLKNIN
T1 sequence (P01137 30-278 limits assumed, chain 2 of 3): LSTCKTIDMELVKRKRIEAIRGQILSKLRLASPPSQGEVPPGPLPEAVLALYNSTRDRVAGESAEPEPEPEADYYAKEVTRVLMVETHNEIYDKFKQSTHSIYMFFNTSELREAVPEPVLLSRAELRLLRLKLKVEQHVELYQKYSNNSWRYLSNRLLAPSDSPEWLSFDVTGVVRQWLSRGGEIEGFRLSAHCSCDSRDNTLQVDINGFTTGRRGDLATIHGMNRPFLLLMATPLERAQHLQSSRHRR
T1 sequence (P01137 279-390 limits assumed, chain 3 of 3): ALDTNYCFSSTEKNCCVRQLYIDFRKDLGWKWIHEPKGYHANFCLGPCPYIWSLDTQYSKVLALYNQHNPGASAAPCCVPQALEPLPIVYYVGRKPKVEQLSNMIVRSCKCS
T2 sequence (Q14392 20-627 limits assumed, chain 1 of 2): as the sequence (Q14392 20-627 limits assumed, chain 1 of 3) above
T2 sequence (P01137 30-278 limits assumed, chain 2 of 2): as the sequence (P01137 30-278 limits assumed, chain 2 of 3) above

B1: 39B6-AVE IgG4 S228P (antibody, V domains shown)
VH: QVQLVQPGAEVRKPGASVKVSCKASGYRFTSYYIDWVRQAPGQGLEWMGRIDPEDAGTKYAQKFQGRVTMTADTSTSTVYVELSSLRSEDTAVYYCARVEWETVVVGDLMYEYEYWGQGTLVTVSS
VL: DIQMTQSPSSLSASVGDRVTITCQASQSISSYLAWYQQKPGQAPKILIYGASRLKTGVPSRFSGSGSGTSFTLTISSLEPEDAATYYCQQYASVPVTFGQGTKVEIKR
notes: Variant of 39B6-A in IgG4 S228P format; Positions are Kabat-type
In the case of B1, the “Fold-difference (KD vs 39B6-A)” value in [1] amounted to 0.9 fold; in [2], 1 fold. Also, the results for the equilibrium dissociation constant (Kd) in assay [1] and in assay [2] were 0.894 nM and 1.29 nM, respectively. Also, the “Activity on Biacore (%)” value in assay [3] is 99.5%; in assay [4] it was 99.5%; in [5], 99%; in assay [6], 31.3%; in assay [7], 96.9%; in [8], 68%.

B2: LHG10.6 IgG1-N297Q (antibody, V domains shown)
VH: B1 VH with Q1E, V11L, K13N, P14S, A56G, M70F, V79A, V99N, L121Q
VL: DIQMTQSPSSLSASLGDRVTITCQASQSISSYLAWYQQKPGQAPNILIYGASRLKTGVPSRFSGSGSGTSFTLTISGLEAEDAGTYYCQQYASVPVTFGQGTKVELK
Consider B2, for which, in assay [9], the “Fold-difference (KD vs LHG10.6)” value amounted to 1 fold and the equilibrium dissociation constant (Kd) turned out to be 0.534 nM. Moreover, in [10], the “Fold-difference (KD vs LHG10.6)” value turned out to be 1 fold and the dissociation constant (Kd) was determined as 0.819 nM.

B3: 39B6 IgG1-N297Q (antibody, V domains shown)
VH: B1 VH with A56G, V99N
VL: B2 VL with L15V, N45K, G77S, A80P, G84A, L106I
notes: Effector-deficient format hIgG1 N297Q; The second row may be the IgG4 S228P form; Both rows are written here as printed
B3: the dissociation constant (Kd) in assay [9] was 1.23 nM and 1.02 nM.

B4: Fab 17H5 (Fab of LHG-10.6) (Fab, V domains shown)
VH: B1 VH with Q1E, V11L, K13N, P14S, A56G, M70F, V79A, V99N, L121Q
VL: B2 VL
notes: Parental, non-germlined Fab
B4: the koff in assay [11] amounted to 0.000201 s⁻¹.

B5: LHG-10.6 monoclonal antibody (17H5 mAb), isotype not stated (antibody, V domains shown)
VH: B1 VH with Q1E, V11L, K13N, P14S, A56G, M70F, V79A, V99N, L121Q
VL: B2 VL
Turning to B5, in [1], the “Fold-difference (KD vs 39B6-A)” value stood at 0.5 fold and the dissociation constant Kd was determined as 0.517 nM. Besides, in assay [12], the Kd came to 0.1 nM and the “fold difference (KD vs 17H5)” value came out at 1 fold.

B6: 39B6-AYE (ARGX-115), IgG4 S228P (antibody, V domains shown)
VH: B1 VH with V99Y
VL: B1 VL
As to B6, the binding result in assay [13] is “no binding”. Also, the “Fold-difference (KD vs 39B6-A)” value worked out at 0.8 fold in [1] and 1.2 fold in assay [2]. For the same molecule, the Kd in assay [1] was found to be 0.763 nM; in assay [2], 1.62 nM. Moreover, the “Activity on Biacore (%)” value in [3] amounted to 93.5%; in [4], 93.5%; in assay [5] it was 96.7%; in [6], 104%; in [7], 104%; in assay [8], 96.1%.
